The values that follow are results of earlier work, collected in PMC6165679.

One may read the Ki as the dissociation constant of the complex between target and ligand, obtained from inhibition or displacement. As a reminder, the Kd is the free concentration of one partner at which half of the binding sites on the other are occupied at equilibrium, for simple one-to-one binding.

Data set [1] concerns the target APJ receptor (Homo sapiens) (UniProt P35414).
Data set [2] shares this target. The experiment in a line: competition binding.

Sequence of UniProt P35414 (P35414 whole entry): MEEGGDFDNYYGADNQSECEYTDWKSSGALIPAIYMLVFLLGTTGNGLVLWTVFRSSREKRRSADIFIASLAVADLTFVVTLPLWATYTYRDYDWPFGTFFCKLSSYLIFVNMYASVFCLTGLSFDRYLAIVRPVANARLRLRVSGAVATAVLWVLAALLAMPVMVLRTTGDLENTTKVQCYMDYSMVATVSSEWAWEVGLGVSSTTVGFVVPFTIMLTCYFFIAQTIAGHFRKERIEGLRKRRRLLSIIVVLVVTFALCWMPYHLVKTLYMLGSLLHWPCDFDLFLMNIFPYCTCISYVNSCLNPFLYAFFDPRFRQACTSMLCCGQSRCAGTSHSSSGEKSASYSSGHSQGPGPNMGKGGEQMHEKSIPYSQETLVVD

For cyclo(1–6)CRPRLC-KH-cyclo(9–14)CRPRLC, the Ki in data set [1] is 0.082 µM. Besides, the equilibrium dissociation constant (Kd) in data set [2] is 3.2 µM.
